# Measured values: patent US20220339270A1
# Tests used:
# [1] = target: Tau441 (recombinant, not phosphorylated) (human), P10636; assay: ELISA, PT3 immobilized, tau protein applied at 333 ng/mL; settings: remark: other sources report otherwise
# [2] = target: Phospho_Tau441 (Tau441 phosphorylated in vitro by DYRK1A) (human), P10636; assay: as above; settings: remark: other sources report otherwise
# Chain of Phospho_Tau441 (Tau441 phosphorylated in vitro by DYRK1A) (human), P10636 (P10636 other isoform, or with tags, fused parts or gaps limits assumed): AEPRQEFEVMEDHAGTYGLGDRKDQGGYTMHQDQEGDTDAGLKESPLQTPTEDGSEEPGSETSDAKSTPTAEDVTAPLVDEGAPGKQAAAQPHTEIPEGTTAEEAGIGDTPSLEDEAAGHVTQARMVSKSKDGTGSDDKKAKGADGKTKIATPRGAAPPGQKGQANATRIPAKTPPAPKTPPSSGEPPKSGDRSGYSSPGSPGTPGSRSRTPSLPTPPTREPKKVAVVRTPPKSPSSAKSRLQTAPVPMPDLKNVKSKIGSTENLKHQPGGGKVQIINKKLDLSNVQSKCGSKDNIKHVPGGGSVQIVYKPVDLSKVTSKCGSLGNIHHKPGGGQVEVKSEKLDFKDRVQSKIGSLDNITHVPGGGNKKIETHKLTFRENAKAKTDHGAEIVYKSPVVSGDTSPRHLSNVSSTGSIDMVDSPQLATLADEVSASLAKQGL
# Chain of Tau441 (recombinant, not phosphorylated) (human), P10636 (P10636 other isoform, or with tags, fused parts or gaps limits assumed): as above
binder,measurement,setting,value
"anti-tau antibody PT3 (antibody, V domains shown) VH: EVKLVESGGDLVKPGGSLKLSCAASGFTFSSYAMSWVRQNPEKRLEWVASISKGGNTYYPNSVKGRFTISRDNARNILYLQMSSLRSEDTALYYCARGWGDYGWFAYWGQVTLVTVSA VL: DIKMTQSPSSMYASLGERVTITCKASQDINRYLNWFQQKPGKSPKTLIYRANRLLDGVPSRFSGSGSGQDYSLTISSLDYEDMGIYYCLQYDEFPLTFGDGTKLELK",OD450-570,[1],0
same,OD450-570,[2],0.5
